Article PMC9636186 (Nature Communications, 2022)

Molecular target: ItcR itaconate-binding domain (IBD) (ItcR truncation of residues 80-292)
Assay: SEC-MALS

For “ItcR itaconate-binding domain (IBD) (ItcR truncation of residues 80-292) (domain or fragment)”, the stoichiometry N was 2.
